Measurements: patent publication US20190137501

Molecular target: epidermal growth factor receptor (EGFR)

B1: protein-tyrosine phosphatase 1b (PTP1b) (protein)
chain: MEMEKEFEQIDKSGSWAAIYQDIRHEASDFPCRVAKLPKNKNRNRYRDVSPFDHSRIKLHQEDNDYINASLIKMEEAQRSYILTQGPLPNTCGHFWEMVWEQKSRGVVMLNRVMEKGSLKCAQYWPQKEEKEMIFEDTNLKLTLISEDIKSYYTVRQLELENLTTQETREILHFHYTTWPDFGVPESPASFLNFLFKVRESGSLSPEHGPVVVHCSAGIGRSGTFCLADTCLLLMDKRKDPSSVDIKKVLLEMRKFRMGLIQTADQLRFSYLAVIEGAKFIMGDSSVQDQWKELSHEDLEPPPEHIPPPPRPPKRILEPHNGKCREFFPNHQWVKEETQEDKDCPIKEEKGSPLNAAPYGIESMSQDTEVRSRVVGGSLRGAQAASPAKGEPSLPEKDEDHALSYWKPFLVNMCVATVLTAGAYLCYRFLFNSNT
  EGFR Y1173 phosphorylation (semi-quantitative Western blot): inhibition of PTP1b increased EGFR Y1173 phosphorylation in GFP control cells treated with 0.25 nM EGF
